Data taken from US7223902B1, “Method of producing recombinant Aspergillus niger β-glucosidase and an aroma spreading plant” (Yissum Research Development Company of the Hebrew …, priority 1999, dated 2007).

Experiments:
[1] = molecular target: A. niger β-Glucosidase (BGL1); assay: Inactivation of A. niger β-glucosidase by 2FGlcF, residual activity with DNPGlc; assay type: biochemical, Aspergillus niger; conditions: 30 mM citrate buffer pH=4.8, 50° C., 0.5-6 mM inactivator
Method: Pure A. niger β-Glucosidase enzyme (0.47 mg/ml) was incubated in the presence of various concentrations of 2-deoxy-2-fluoro-β-glucosyl fluoride (2FGlcF, 0.5-6 mM) in 30 mM citrate buffer pH=4.8 at 50° C. Residual enzyme activity was determined at different time intervals by addition of an aliquot (10 μl) of the inactivation mixture, to a solution containing citrate buffer (30 mM, pH=4.8), BSA (8 μg) and 2,4-dinitrophenyl β-D-glucopyranoside (DNPGlc, 0.625 mM, 830 μl). Release of DNP was determined spectrophotometrically by measuring the absorbance at 400 nm one minute after the addition of the substrate.
Enzyme was incubated in the presence of various concentrations of 2FGlcF and residual enzyme activity was monitored at different time intervals.

[2] = test system: 2-deoxy-2-fluoroglucosyl-BGL1; assay: Reactivation of 2FGlcF-inactivated enzyme in the presence of linamarin; assay type: biochemical, Aspergillus niger; conditions: linamarin 0-16 mM, pH=4.8, 50° C., 0, 10, 20 and 30 min
Method: Reactivation rates were determined as follows: pure A. niger β-glucosidase (0.34 mg/ml) was preincubated with 2FGlcF (5 mM) for 15 min, after which the excess of the inactivator was diafiltered by 20-kDa nominal molecular mass cutoff centrifugal concentrators (Sartorius Inc., Goettingen, Germany). Samples of the purified, inactivated enzyme were incubated in the presence linamarin (0-16 mM) in citrate buffer (30 mM, pH=4.8) at 50° C. for 0, 10, 20 and 30 minutes, and the activity of each sample was determined using p-nitrophenyl β-D-glucopyranoside (pNPGlc) as a substrate.
Rates of reactivation of 2-deoxy-2-fluoroglucosyl-BGL1 were determined in the presence of different concentrations of linamarin by monitoring activity regain after 0, 10, 20 and 30 min (FIG. 9).

[3] = SDS-PAGE activity gel staining (MUGlc) of transgenic tobacco plant extracts; assay type: biochemical, Nicotiana tabacum cv. Samson; conditions: number of tobacco regenerates with BGL1 activity
Method: Detection of β-glucosidase in polyacrylamide gels was carried out by washing the SDS-polyacrylamide gel with 1:1 isopropanol:PC buffer to remove SDS and renature the enzyme. The gel was washed once in PC buffer and incubated in a thin layer of a solution of 0.5 mM MUGlc. After incubation at 50° C. for one hour, the active protein band was visualized by UV light.
Western blot (40) and SDS-PAGE activity gel staining (37) were employed to screen successful transgenic lines, using the purified A. niger BGL1 protein as positive controls and non-transgenic plant as negative control.

[4] = Quantitative β-glucosidase assay using pNPGlc as a substrate; assay type: biochemical
Method: Quantitative assays were performed using pNPGlc as a substrate according to Shoseyov (7).

[5] = Determination of thermal stability of A. niger β-glucosidase (standard pNPGlc assay); assay type: physicochemical; conditions: for % activity: percent of enzyme solution kept at 4° C., pH=5
Method: Determination of Thermal Stability of A. niger β-Glucosidase:
Recombinant enzyme (40 μg/ml) was dissolved in 20 mM citrate phosphate buffer, pH=5. Each tested sample (8 μl) was covered by 15 μl mineral oil. The activity was determined by the standard pNPGlc assay (7).
Thermal stability of the recombinant enzyme was evaluated at different temperatures, presented as percent enzymatic activity relative to an enzyme solution kept at 4° C. Results obtained are summarized in Table 2 and illustrated in FIG. 10.

Question: Which KI (inactivation) [1] does the source give for `OC[C@H]1O[C@@H](F)[C@H](F)[C@@H](O)[C@@H]1O` [2FGlcF, 2-deoxy-2-fluoro β-glucosyl fluoride] here?
Answer: 35.4 mM

Question: And the “pseudo-first order rate constant Ki for inactivation” value [1]?
Answer: 4.5 min⁻¹

Question: For `CC(C)(C#N)O[C@@H]1O[C@H](CO)[C@@H](O)[C@H](O)[C@H]1O` [linamarin], which “regain of activity of 2-deoxy-2-fluoroglucosyl-BGL1” value [2] is on record?
Answer: followed a first order process

B1: BGL1: BGL1 without a signal peptide expressed in tobacco plants (plasmid pJDB1, SEQ ID NO:14) (protein)
chain: DELAYSPPYYPSPWANGQGDWAQAYQRAVDIVSQMTLDEKVNLTTGTGWELELCVGQTGGVPRLGVPGMCLQDSPLGVRDSDYNSAFPAGMNVAATWDKNLAYLRGKAMGQEFSDKGADIQLGPAAGPLGRSPDGGRNWEGFSPDPALSGVLFAETIKGIQDAGVVATAKHYIAYEQEHFRQAPEAQGFGFNISESGSANLDDKTMHELYLWPFADAIRAGAGAVMCSYNQINNSYGCQNSYTLNKLLKAELGFQGFVMSDWAAHHAGVSGALAGLDMSMPGDVDYDSGTSYWGTNLTISVLNGTVPQWRVDDMAVRIMAAYYKVGRDRLWTPPNFSSWTRDEYGYKYYYVSEGPYEKVNQYVNVQRNHSELIRRIGADSTVLLKNDGALPLTGKERLVALIGEDAGSNPYGANGCSDRGCDNGTLAMGWGSGTANFPYLVTPEQAISNEVLKHKNGVFTATDNWAIDQIEALAKTASVSLVFVNADSGEGYINVDGNLGDRRNLTLWRNGDNVIKAAASNCNNTIVVIHSVGPVLVNEWYDNPNVTAILWGGLPGQESGNSLADVLYGRVNPGAKSPFTWGKTREAYQDYLVTEPNNGNGAPQEDFVEGVFIDYRGFDKRNETPIYEFGYGLSYTTFNYSNLEVQVLSAPAYEPASGETEAAPTFGEVGNASDYLYPSGLLRITKFIYPWLNGTDLEASSGDASYGQDSSDYLPEGATDGSAQPILPAGGGPGGNPRLYDELIRVSVTIKNTGKVAGDEVPQLYVSLGGPNEPKIVLRQFERITLQPSEETKWSTTLTRRDLANWNVEKQDWEITSYPKMVFVGSSSRKLPLRASLPTVH
Question: With B1 as the molecule, how does the Activity gel positive [3] read?
Answer: 0

B2: recombinant BGL1: Recombinant Aspergillus niger B1 β-glucosidase (SEQ ID NO:2) expressed from bgl1 cDNA in P. pastoris, S. cerevisiae or E. coli (protein)
chain: MRFTLIEAVALTAVSLASADELAYSPPYYPSPWANGQGDWAQAYQRAVDIVSQMTLDEKVNLTTGTGWELELCVGQTGGVPRLGVPGMCLQDSPLGVRDSDYNSAFPAGMNVAATWDKNLAYLRGKAMGQEFSDKGADIQLGPAAGPLGRSPDGGRNWEGFSPDPALSGVLFAETIKGIQDAGVVATAKHYIAYEQEHFRQAPEAQGFGFNISESGSANLDDKTMHELYLWPFADAIRAGAGAVMCSYNQINNSYGCQNSYTLNKLLKAELGFQGFVMSDWAAHHAGVSGALAGLDMSMPGDVDYDSGTSYWGTNLTISVLNGTVPQWRVDDMAVRIMAAYYKVGRDRLWTPPNFSSWTRDEYGYKYYYVSEGPYEKVNQYVNVQRNHSELIRRIGADSTVLLKNDGALPLTGKERLVALIGEDAGSNPYGANGCSDRGCDNGTLAMGWGSGTANFPYLVTPEQAISNEVLKHKNGVFTATDNWAIDQIEALAKTASVSLVFVNADSGEGYINVDGNLGDRRNLTLWRNGDNVIKAAASNCNNTIVVIHSVGPVLVNEWYDNPNVTAILWGGLPGQESGNSLADVLYGRVNPGAKSPFTWGKTREAYQDYLVTEPNNGNGAPQEDFVEGVFIDYRGFDKRNETPIYEFGYGLSYTTFNYSNLEVQVLSAPAYEPASGETEAAPTFGEVGNASDYLYPSGLLRITKFIYPWLNGTDLEASSGDASYGQDSSDYLPEGATDGSAQPILPAGGGPGGNPRLYDELIRVSVTIKNTGKVAGDEVPQLYVSLGGPNEPKIVLRQFERITLQPSEETKWSTTLTRRDLANWNVEKQDWEITSYPKMVFVGSSSRKLPLRASLPTVH
modifications: Aspergillus niger
Question: Which results are given for B2?
Answer: β-glucosidase activity ([4]; overexpressed in E. coli, E. coli extracts): No apparent β-glucosidase activity could be detected; specific activity ([4]; secreted by P. pastoris to the medium, without further purification): 124 units/mg protein; % activity ([5]; 4 °C): 100%; % activity ([5]; 50 °C): 91.5%; % activity ([5]; 55 °C): 83.5%; % activity ([5]; 60 °C): 68%; % activity ([5]; 65 °C): 17.8%; % activity retained ([5]; after 1 hour incubation at 60° C., percent activity of an enzyme kept at 4° C.): 68%; activity maintained ([5]; temperature ranging from 4-60° C.): above 50%
